Target: LMW-E-T1 (low molecular weight form of cyclin E, T1), MMTV transgene in mouse salivary gland tumors

CDK1 (endogenous in mouse salivary gland tumors) (from UniProt P11440 1-297) (enzyme)
decrease of cyclin E-associated histone H1 kinase activity after 3 rounds of immunodepletion of CDK1 (90%), CDK2+/+ tumor lysate (sample 3085): 7%
decrease of cyclin E-associated histone H1 kinase activity after 3 rounds of immunodepletion of CDK1 (90%), CDK2-/- tumor lysate (sample 4111): 14%
